Data on two substances can be found in doi:10.1101/2025.10.26.684595.

The target in assay [1] is human PIEZO2 in the cryo-EM complexes with MDFIC and MDFIC2 (human) (UniProt Q9H5I5). Put plainly: cryo-EM structure.
For assay [2], the target named is mouse PIEZO1 in the cryo-EM complex with mouse MDFI (mouse) (UniProt E2JF22). Briefly: cryo-EM structure. Conditions: remark: other sources report otherwise.

The stoichiometry N is the number of molecules, sites or subunits per partner or assembly. “human PIEZO2 in the cryo-EM complexes with MDFIC and MDFIC2, Q9H5I5” returned a stoichiometry N in assay [1] of 3.

In turn, “mouse PIEZO1 in the cryo-EM complex with mouse MDFI, E2JF22 1-2547” showed a stoichiometry N in assay [2] of 3.
